We go through 1 substance from article PMC4050190.

Values joined by “and” are separate entries in the source; they are usually repeats but may differ in a detail not shown here. Equal entries are not always repeated.

The target in the experiment is 6x His-p10 (pRSF duet, first multiple cloning site) (Sesbania mosaic virus).

As to “untagged SeMV RdRp (pRSF duet) (domain or fragment)”, the in vitro RdRp assay (incorporation of αP32 UTP, filter binding, 2 μg protein, 30 °C, 1 h): activity of the RdRp-p10 complex against RdRp alone is 5 fold and 6 fold.
